# T1: biotinylated CRH (Homo sapiens, UniProt P06850)
# T1 construct: purchased GL Biochem 784751
# T1 sequence (P06850 154-194): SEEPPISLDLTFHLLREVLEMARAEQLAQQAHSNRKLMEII
# How the values were obtained:
# human CRHR2 = assay: CRH-induced luciferase reporter blocking assay, CHO-CRE-hCRHR2 cells; assay type: cell-based; conditions: CHO-CRE-hCRHR2 cells, 0.1 nM CRH
# How it was run: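 CHO-CRE reporter cells stably expressing mouse or human CRHR2 were treated with serially diluted antibodies (8 points, 1:4) plus CRH at final 5 nM (mCRHR2) or 0.1 nM (hCRHR2), 4-6 hours at 37° C. CRE-driven luciferase read by luminescence after 10 min with detection reagent.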
# biotinylated CRH = molecular target: T1, biotinylated CRH; assay: Affinity determination with Octet; assay type: binding
# How it was run: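 Biolayer interferometry: 30 nM biotinylated CRH loaded onto streptavidin sensors, 2-fold antibody dilutions as analyte in PBS kinetics buffer. Association 180 s, dissociation 800 s, glycine pH 1.5 regeneration; double-referenced data fitted for affinity.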
# [1] = test system: constitutively high plasma ACTH in Mrap1 KO mice; assay: Mrap1 KO mice constitutively high ACTH model; assay type: in vivo, mouse; conditions: for plasma ACTH concentrations in Mrap1 KO mice: single dose 20 mg/kg
# Procedure: 8-10 week old wildtype female C57BL/6 mice were obtained from Charles River Laboratories. Mrap1 KO mice were obtained from Queen Mary University of London, UK. SSR125543A, a small molecule CRHR1 antagonist, was obtained from Axon Medchem (Cat #Axon 1799). Mouse Corticosterone (55-Corms-E01) and adrenocorticotropic hormone (ACTH) ELISA kits (21-ACTHU-E01) were obtained from ALPCO, USA. All procedures were carried out in accordance with the Guide for the Care and Use of Laboratory Animals of the National Institutes of Health. Protocols were approved by Charles River Laboratories Institutional Animal Care and Use Committee (IACUC).
# To generate Mrap1 KO mice, Mrap1−/− male mice were bred with Mrap1+/− female mice. Corticosterone hormone replacement was performed by administering 50 μg/ml in drinking water to breeder cages when female mice were pregnant and their pregnancies palpable (approximately embryonic day 10). Drinking water was changed weekly, and treatment was stopped at weaning. Mice were uniquely identified with ear tags at the time of tail clipping to match future genotype with each mouse. DNA was extracted from tail tissue and used to genotype mice.
# […] On day 2 or 3, 14 and 28, 200 μl of blood was collected in EDTA tubes from the submandibular vein of each mouse. Plasma was separated using a refrigerated centrifuge (4° C. at 500×g for 10 min) and snap-frozen in dry ice for subsequent ACTH ELISA measurement.
# mouse CRHR2 = assay: CRH-induced luciferase reporter blocking assay, CHO-CRE-mCRHR2 cells; assay type: cell-based; conditions: CHO-CRE-mCRHR2 cells, 5 nM CRH
# How it was run: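 CHO-CRE cells stably expressing mouse CRHR2 were seeded overnight, then given serially diluted antibodies (8 points, 1:4) together with CRH at 5 nM final. After 4–6 h at 37 °C, CRE-driven luciferase was read by Bio-Glo luminescence.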
Molecule,IC50 (human CRHR2) [nM],kdis (biotinylated CRH) [s⁻¹],kon (biotinylated CRH) [M⁻¹ s⁻¹],inhibition of ACTH versus SSR125543A ([1]; Mrap1 KO mice),"efficacy versus SSR125543A, ACTH levels ([1]; Mrap1 KO mice, day 2 and day 14, figure legend, doses not given)","efficacy in reducing plasma ACTH levels versus SSR125543A at 30 mg/kg ([1]; Mrap1 KO mice, mAb 5 mg/kg)","efficacy in reducing plasma ACTH levels versus SSR125543A at 30 mg/kg ([1]; Mrap1 KO mice, mAb 10 mg/kg)","efficacy in reducing plasma ACTH levels versus SSR125543A at 30 mg/kg ([1]; Mrap1 KO mice, mAb 20 mg/kg)",plasma ACTH concentrations in Mrap1 KO mice [1],IC50 (mouse CRHR2) [nM]
"PR302334-24: humanized variant of Series 9 mAb PR302334; VH SEQ ID NO: 275, VL SEQ ID NO: 328 (antibody, V domains shown, PR302334-16 VH, PR302334-24 VH, PR302334-25 VH; PR302334-10 VL, PR302334-24 VL, PR302334-26 VL, PR302334-4 VL) VH: EVQLVESGGGLVKPGGSLRLSCAASGFTFSTYAMSWVRQAPGKGLEWVASIRSGGTTYYPDSVKGRFTISRDNAKNSLYLQMNSLRAEDTAVYYCTRGIDWGQGTTVTVSS VL: DIVMTQSPDSLAVSLGERATINCKASQSVNNDVAWYQQKPGQPPRLLIYYASNRYTGVPDRFSGSGSGTDFTLTISSLQAEDLAVYFCQQDYSSWTFGGGTKVEIK",2.01,<1e-07,606000,more complete inhibition,superior efficacy,more efficacious,more efficacious,more efficacious,significantly reduced,2.03
"PR302334-26: humanized variant of Series 9 mAb PR302334; VH SEQ ID NO: 277, VL SEQ ID NO: 328 (antibody, V domains shown, PR302334-18 VH, PR302334-26 VH, PR302334-27 VH; PR302334-10 VL, PR302334-24 VL, PR302334-26 VL, PR302334-4 VL) VH: EVQLVESGGGLVQPGGSLRLSCAASGFTFSTYAMSWVRQAPGKGLEWVASIRSGGTTYYPDSVKGRFTISRDNSKNSLYLQMNSLRAEDTAVYYCTRGIDWGQGTTVTVSS VL: DIVMTQSPDSLAVSLGERATINCKASQSVNNDVAWYQQKPGQPPRLLIYYASNRYTGVPDRFSGSGSGTDFTLTISSLQAEDLAVYFCQQDYSSWTFGGGTKVEIK",1.24,<1e-07,329000,,,,,,markedly reduced,1.47
